Data on 3 molecules can be found in PMC7041687 (The Journal of Cell Biology, 2019).

Positions count from the first letter of the chain named. Ends that are not written are not given here.

As a reminder, the Kd is a measure of binding affinity in units of concentration. Read a low Kd as higher affinity.

Sequences and labels used below:
B1: His6-Thrombin-Sas4-606 (Sas4 amino acids 606–901) (domain or fragment, Drosophila, UniProt Q9VI72 606-901, looked up)
chain: RNIARLAPKVLPSATMSDILDENGRRTQSLDGTAGKPAKQREAQNRRQSSGSAQVRSRSRSLSRNKKTPYALDESYASSSSVESEEVQPPVTAPKAATPPPAANSSSDFKREITNADGSKDIWYPNGNLKKISADGMNLRMLYFNKDIKETNIREGTVKYYYAETNTWHTSYLDGLEILEFPNGQTEHRRKDGTVEIHFPNNSIKIVDPSDTEKLEEWRYADGTHLVQLRNGDKILNLPNGQKEIHTKLNKRREYPDGTVKLVYPDGSQETRYSNGRVRLKDKDGKLIMDTDYAKY
B2: Ana2 1–60 (amino acids 1–60), nonphosphorylated (domain or fragment, Drosophila, UniProt Q9XZ31 1-60, looked up)
chain: MFVPETEDMLPRLAPRPSAAVPMGHTNEIIGPTVPEVSILFGQPPQDPQMQPQQPNHAHQ
B3: Ana2 1–60 prephosphorylated with purified Plk4 (domain or fragment, Drosophila, UniProt Q9XZ31 1-60, looked up)
chain: B2 chain
modifications: also: prephosphorylated by Plk4, sites not listed

Assay in all cases: BLI
Experiment [1] concerns the target T1, Ana2 S38A full length, nonphosphorylated (purified) (Drosophila, UniProt Q9XZ31 1-420, S38A).
T1 sequence (looked up): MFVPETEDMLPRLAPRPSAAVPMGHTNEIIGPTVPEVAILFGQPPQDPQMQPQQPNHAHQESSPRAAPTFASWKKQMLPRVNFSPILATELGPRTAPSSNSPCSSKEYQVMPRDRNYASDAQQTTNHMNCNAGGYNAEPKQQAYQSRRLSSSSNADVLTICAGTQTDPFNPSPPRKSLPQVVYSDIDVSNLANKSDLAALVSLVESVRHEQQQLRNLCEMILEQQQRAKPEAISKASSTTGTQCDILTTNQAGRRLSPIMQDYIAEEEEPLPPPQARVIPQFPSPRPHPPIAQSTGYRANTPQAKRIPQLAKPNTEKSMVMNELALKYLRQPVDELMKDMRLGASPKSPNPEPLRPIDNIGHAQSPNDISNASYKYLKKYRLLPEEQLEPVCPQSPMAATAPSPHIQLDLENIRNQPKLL

Experiment [2] has as its target T2, Ana2 full length, wild type, nonphosphorylated (purified) (Drosophila, UniProt Q9XZ31 1-420).
T2 sequence (looked up): T1 sequence (looked up) with A38S

Experiment [3] addresses B1.

B1: the dissociation constant Kd worked out at 31 nM in experiment [1] and 26 nM in experiment [2].

B2: in experiment [3], the Kd was 134 nM.

In experiment [3], B3 came in with a dissociation constant (Kd) of 72 nM.
